Measured values from US20130064837A1 (University of California, published 2013).

How the values were obtained:
mouse integrin β8 = target: T1, mouse integrin β8 (mouse, UniProt Q0VBD0 22-767, limits assumed); experiment: antibody binding, cell surface staining, flow cytometry (mouse/human chimeric β8 constructs)
T1 construct: also called itgb8; M itgb8
T1 sequence (looked up): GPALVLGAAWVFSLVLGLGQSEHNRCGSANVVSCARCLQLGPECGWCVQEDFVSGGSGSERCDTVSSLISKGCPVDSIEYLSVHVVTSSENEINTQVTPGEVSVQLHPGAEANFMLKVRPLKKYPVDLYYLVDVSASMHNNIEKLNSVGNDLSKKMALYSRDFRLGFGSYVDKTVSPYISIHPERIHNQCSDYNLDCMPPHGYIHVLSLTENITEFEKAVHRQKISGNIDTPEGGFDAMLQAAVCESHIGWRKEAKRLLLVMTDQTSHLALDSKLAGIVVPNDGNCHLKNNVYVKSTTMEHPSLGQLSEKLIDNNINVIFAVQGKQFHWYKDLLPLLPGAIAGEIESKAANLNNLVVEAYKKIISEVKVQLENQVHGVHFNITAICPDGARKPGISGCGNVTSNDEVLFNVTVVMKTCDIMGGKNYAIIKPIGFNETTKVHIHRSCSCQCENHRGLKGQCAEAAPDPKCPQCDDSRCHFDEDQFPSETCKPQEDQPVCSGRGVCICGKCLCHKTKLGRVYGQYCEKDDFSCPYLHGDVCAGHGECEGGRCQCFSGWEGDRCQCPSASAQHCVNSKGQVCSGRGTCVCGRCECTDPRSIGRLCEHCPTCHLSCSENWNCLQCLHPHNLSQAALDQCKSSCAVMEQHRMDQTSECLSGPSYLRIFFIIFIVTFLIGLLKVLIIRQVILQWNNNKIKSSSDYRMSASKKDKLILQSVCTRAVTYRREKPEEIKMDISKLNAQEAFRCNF
Source text: (§1) Chimeric integrin β8 constructs, which swapped mouse sequences into human ITGB8 were used to localize the 37E1B5 binding epitope. The epitope was localized by antibody binding, cell surface staining, and detection by flow cytometry. The 37E1B5 epitope is encompassed within amino acids 74-180 of human integrin β8. 37E1B5 binds to human, but not to mouse β8. Therefore, at least one of the 9 non-conservative amino acid differences or 7 minor amino acid differences (indicated by + in the middle line of the sequence) are included in the binding epitope. These domains reflect portions of what are known in the field as the Psi, hybrid and the alpha1 helix of the Beta-I domain of the integrin β8 subunit, and are found on the surface of the molecule.

human integrin αvβ8 = human integrin αvβ8 (human, UniProt P06756 31-1048; P26012 43-769); experiment: cell staining and flow cytometry on primary human articular chondrocytes
Sequence of human integrin αvβ8 (P06756 31-1048, chain 1 of 2): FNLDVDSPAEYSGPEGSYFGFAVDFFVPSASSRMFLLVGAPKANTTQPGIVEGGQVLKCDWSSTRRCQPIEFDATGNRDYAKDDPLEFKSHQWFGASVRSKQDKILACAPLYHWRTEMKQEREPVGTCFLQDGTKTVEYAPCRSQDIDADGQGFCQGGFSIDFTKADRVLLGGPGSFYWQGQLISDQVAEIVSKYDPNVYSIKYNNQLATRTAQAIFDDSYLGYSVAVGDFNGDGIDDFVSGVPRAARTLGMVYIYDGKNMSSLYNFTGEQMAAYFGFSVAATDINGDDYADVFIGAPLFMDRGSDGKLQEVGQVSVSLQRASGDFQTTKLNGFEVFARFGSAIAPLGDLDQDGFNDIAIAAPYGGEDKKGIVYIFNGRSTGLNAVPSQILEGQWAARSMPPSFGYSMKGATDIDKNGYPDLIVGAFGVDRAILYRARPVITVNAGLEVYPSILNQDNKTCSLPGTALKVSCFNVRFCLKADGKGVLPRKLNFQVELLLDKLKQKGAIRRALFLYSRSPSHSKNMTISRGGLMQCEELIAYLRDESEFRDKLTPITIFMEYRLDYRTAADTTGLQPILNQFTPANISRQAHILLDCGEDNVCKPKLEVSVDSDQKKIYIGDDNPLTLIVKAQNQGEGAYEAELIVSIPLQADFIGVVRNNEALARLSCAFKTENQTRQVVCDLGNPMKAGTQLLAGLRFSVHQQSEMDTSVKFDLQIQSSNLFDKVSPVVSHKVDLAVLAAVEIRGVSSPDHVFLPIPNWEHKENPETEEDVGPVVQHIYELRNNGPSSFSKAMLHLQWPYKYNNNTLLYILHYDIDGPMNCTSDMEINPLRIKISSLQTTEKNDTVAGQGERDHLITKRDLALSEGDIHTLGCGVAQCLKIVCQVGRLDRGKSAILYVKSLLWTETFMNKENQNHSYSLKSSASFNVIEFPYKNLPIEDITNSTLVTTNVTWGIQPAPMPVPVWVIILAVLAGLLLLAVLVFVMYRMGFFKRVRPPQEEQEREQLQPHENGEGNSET
Sequence of human integrin αvβ8 (P26012 43-769, chain 2 of 2): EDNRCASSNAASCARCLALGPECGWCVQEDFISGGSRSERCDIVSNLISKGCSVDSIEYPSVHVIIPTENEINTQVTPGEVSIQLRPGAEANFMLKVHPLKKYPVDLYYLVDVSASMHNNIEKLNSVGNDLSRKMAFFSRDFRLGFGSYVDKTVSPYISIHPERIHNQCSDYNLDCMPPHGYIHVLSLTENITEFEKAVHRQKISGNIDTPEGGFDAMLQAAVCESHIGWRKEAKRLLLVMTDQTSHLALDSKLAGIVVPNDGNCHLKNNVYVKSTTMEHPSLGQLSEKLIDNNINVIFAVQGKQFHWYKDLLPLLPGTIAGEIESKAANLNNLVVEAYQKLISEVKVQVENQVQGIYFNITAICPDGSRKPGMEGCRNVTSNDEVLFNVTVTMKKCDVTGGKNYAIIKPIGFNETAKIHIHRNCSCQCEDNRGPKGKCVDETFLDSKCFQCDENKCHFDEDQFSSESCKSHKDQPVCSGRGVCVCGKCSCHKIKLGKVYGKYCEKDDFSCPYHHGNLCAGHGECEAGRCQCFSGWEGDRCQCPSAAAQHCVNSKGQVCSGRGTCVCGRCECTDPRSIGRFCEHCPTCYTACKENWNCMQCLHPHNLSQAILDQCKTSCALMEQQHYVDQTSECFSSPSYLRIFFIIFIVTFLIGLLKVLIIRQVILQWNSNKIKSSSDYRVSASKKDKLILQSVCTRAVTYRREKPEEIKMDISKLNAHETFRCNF
Experimental: Adult articular cartilage was harvested from the joint space of knee from a patient undergoing elective repair of a knee for chronic osteoarthritis. Primary chondrocytes were grown to 70% confluence and the integrin receptor expression determined by cell staining and flow cytometry. The antibodies used were anti-β8 (37E1B5), and anti-β6 (E7P6). […] Primary chondrocytes were co-cultured with TMLC TGF-β reporter cells (Annes et al. (2004) J. Cell Biol. 165:723) in a TGF-β bioassay in the presence or absence of anti-β8 (37E1B5) or neutralizing anti-β6. Anti-β8 produced a robust blockade of TGF-β activation while anti-β6 produced no such effect.

human integrin β8 = target: T2, human integrin β8 (human, UniProt P26012 43-769); experiment: antibody binding, cell surface staining, flow cytometry
T2 construct: whole, on cells; also called ITGB8; H ITGB8
T2 sequence (P26012 43-769): as the sequence (P26012 43-769, chain 2 of 2) above
Source text: as §1

binding result (mouse integrin β8): no binding
binding result (human integrin αvβ8): binds
binding result (human integrin β8): binds
B1: 37E1B5 (antibody, V domains shown)
VH: EVQLVESGGGLVQPGGSLNLSCAVSGFVFSRYWMSWVRQAPGKGLEWIGEINPDSSTINYTSSLKDKFIISRDNAKNTLYLQMNKVRSEDTALYYCACLITTEDYWGQGTSVTVSS
VL: QIVLTQSPSSMYASLGERVTIPCKASQDINSYLSWFQQKPGKSPKTLIYYANRLVDGVPSRFSGSGSGQDYSLTISSLEYEDMGIYYCLQYDEFPYTFGGGTKLEIK
notes: Three versions were made in CHO cells: mouse IgG1, mouse IgG2a and partially humanized IgG1; also called 37E1B5 antibody; anti-β8 (37E1B5)
